From US20100143371A1 (published 2010) come the findings set out here.

Assay [1] deals with T1, GST-Etk kinase domain (human, UniProt P51813 417-675).
T1 construct: Soluble fusion protein expressed in SF21 cells by baculovirus, purified on glutathione beads; also called recombinant Etk; not shown: Glutathione-S-transferase (GST) fusion partner of the pBac vector (Pharmingen)
Kind of assay: ELISA, purified domain antibody on immobilised GST-Etk, anti-Myc-HRP detection. The procedure: Quantitative Etk binding assay. Various concentrations of purified domain antibodies were added into a Maxi-sorp 96 well microtiter plate coated with 100 μl/well of 1 μg/ml GST-Etk and incubated for 1 h at RT. The plate was washed 3 times with PBST and then incubated with 100 μl/well of anti-Myc-HRP conjugate (1:5000 dilution) for 1 h at RT. The plate was washed 5 times, TMB peroxidase substrate was added and the absorbance at 450 nm was measured.
The antibody concentration required for 50% of maximum binding to Etk was 5 nM and 8 nM for L9 and L11, respectively, and approximately 20 nM for L5, L7, L12 and L15. […] Consistent with the binding data, all 6 domain antibodies blocked Etk enzymatic activity dose-dependently, as indicated by the reduction in the ability of recombinant Etk to phosphorylate the substrate, polyEY, in the presence of the domain antibodies (FIG. 2C).

The target in assay [2] is T1, GST-Etk kinase domain. The experiment in a line: cell-based or functional assay.
In assay [3] the target is T2, endogenous Etk of NSR cells (mouse, UniProt P97504 1-651).
T2 sequence (looked up): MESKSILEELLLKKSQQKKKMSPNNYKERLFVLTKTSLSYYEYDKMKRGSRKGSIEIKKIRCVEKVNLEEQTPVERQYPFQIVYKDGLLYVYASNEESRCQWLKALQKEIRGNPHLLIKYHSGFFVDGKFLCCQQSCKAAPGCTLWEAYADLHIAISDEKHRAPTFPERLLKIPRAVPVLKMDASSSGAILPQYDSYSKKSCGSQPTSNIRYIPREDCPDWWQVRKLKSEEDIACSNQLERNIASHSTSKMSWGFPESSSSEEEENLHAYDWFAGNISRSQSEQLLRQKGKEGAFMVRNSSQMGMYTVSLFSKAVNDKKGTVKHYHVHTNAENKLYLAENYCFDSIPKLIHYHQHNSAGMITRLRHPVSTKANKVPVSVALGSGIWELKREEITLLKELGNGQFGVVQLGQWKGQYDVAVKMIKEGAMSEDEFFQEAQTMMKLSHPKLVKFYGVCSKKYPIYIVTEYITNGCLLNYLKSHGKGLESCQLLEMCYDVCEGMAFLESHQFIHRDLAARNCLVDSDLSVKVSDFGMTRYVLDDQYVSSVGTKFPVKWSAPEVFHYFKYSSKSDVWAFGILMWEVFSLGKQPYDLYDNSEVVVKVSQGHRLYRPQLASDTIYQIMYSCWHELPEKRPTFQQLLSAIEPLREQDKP
Kind of assay: cell-based or functional assay.

Assay [4] addresses T2, endogenous Etk of NSR cells. The experiment in a line: co-immunoprecipitation from NSR cell lysate (protein L or anti-Etk), western blot. The procedure:
Western immunoblotting and immunoprecipitation. Cells from a 150 mm dish were harvested in 1 ml lysis buffer containing 25 mM Tris-HCl pH 7.4, 2 mM sodium orthovanadate, 0.5 mM EDTA, 10 mM NaF, 10 mM sodium pyrophosphate, 25 mM NaCl and 1% Tx-100 supplemented with 1:1000 dilution of protease inhibitor cocktail. Cells were frozen and thawed twice, centrifuged and supernatant was collected. Samples of 50 μg protein extract were resolved by SDS-PAGE under reducing conditions, and transferred onto nitrocellulose membrane for western immunoblotting with the indicated antibodies. For immunoprecipitation, 0.5 mg of protein extracts were incubated with either protein L beads or anti-Etk antibodies coupled to protein A bead overnight at 4° C. The immunocomplex was washed 4 times with PBST and twice with 50 mM Hepes, pH 7.5, electrophored on an SDS-polyacrylamide gel under reducing conditions, and transferred onto nitrocellulose membrane for western immunoblotting with the indicated antibodies. In addition, the immunocomplex was also used as the source for enzyme (Etk kinase) in the in vitro kinase activity and autophosphorylation assays described below.
This was further confirmed when the cell lysate was immunoprecipitated with an anti-Etk antibody followed by blotting with an anti-c-Myc antibodies (FIG. 3C).

T1 sequence (P51813 417-675): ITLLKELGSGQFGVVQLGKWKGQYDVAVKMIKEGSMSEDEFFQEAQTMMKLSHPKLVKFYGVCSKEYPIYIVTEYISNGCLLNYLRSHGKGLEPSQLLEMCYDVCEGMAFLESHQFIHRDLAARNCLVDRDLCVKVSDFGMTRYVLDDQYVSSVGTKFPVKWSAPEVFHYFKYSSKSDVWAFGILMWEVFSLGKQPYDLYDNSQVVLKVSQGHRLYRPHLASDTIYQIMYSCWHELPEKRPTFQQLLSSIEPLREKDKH

B1: L5 soluble single domain antibody (antibody, V domains shown)
VL: DIQMTQSPSSLSASVGDRVTITCRASQGIKMKLNWYQQKPGKAPKLLIYNTSHLQSGVPSRFSGSGSGTDFTLTISSLQPEDFATYYCQQHKTRPDTFGQGTKVEIKR
notes: Single human kappa light chain variable domain (domain antibody), expressed from pDOM5 in E. coli BL21, purified on protein L, about 15 kDa; the tie to L5 rests on the order of the list and the numbering (CDRs 4, 6, 8 follow 2); not shown: c-Myc tag (detected with anti-Myc-HRP)
In turn, B1 returned an EC50 in assay [1] of roughly 20 nM. In addition, the “domain antibody concentration required to achieve 50% inhibition of Etk kinase activity (polyEY substrate, ELISA-based in vitro kinase assay)” value in assay [2] was roughly 20 nM.

B2: K5 intrabody (L5 expressed from pcDNA3.1-L5 in NSR cells) (antibody, V domains shown, not shown: small tags and cut ends)
VL: DIQMTQSPSSLSASVGDRVTITCRASQGIKMKLNWYQQKPGKAPKLLIYNTSHLQSGVPSRFSGSGSGTDFTLTISSLQPEDFATYYCQQHKTRPDTFGQGTKVEIKR
With B2, in assay [3], the “in vitro autophosphorylation of immunoprecipitated Etk, percent of the wild-type enzyme (from NSR cells) activity retained” value is roughly 49% and the “in vitro kinase assay of Etk/intrabody immunocomplexes on polyEY, percent of activity of Etk derived from NSR cells” value is roughly 25%.

B3: K9 intrabody (L9 expressed from pcDNA3.1-L9 in NSR cells) (antibody, V domains shown, not shown: small tags and cut ends)
VL: DIQMTQSPSSLSASVGDRVTITCRASQAIKNKLGWYQQKPGKAPKLLIYKASYLQSGVPSRFSGSGSGTDFTLTISSLQPEDFATYYCQQMKSRPNTFGQGTKVEIKR
As for B3, in assay [3], the “in vitro autophosphorylation of immunoprecipitated Etk, percent of the wild-type enzyme (from NSR cells) activity retained” value is roughly 38% and the “in vitro kinase assay of Etk/intrabody immunocomplexes on polyEY, percent of activity of Etk derived from NSR cells” value is roughly 25%.

B4: L9 soluble single domain antibody (antibody, V domains shown)
VL: DIQMTQSPSSLSASVGDRVTITCRASQAIKNKLGWYQQKPGKAPKLLIYKASYLQSGVPSRFSGSGSGTDFTLTISSLQPEDFATYYCQQMKSRPNTFGQGTKVEIKR
notes: Single human kappa light chain variable domain, from pDOM5 in E. coli BL21, protein L purified; not shown: c-Myc tag (detected with anti-Myc-HRP)
Take B4: the EC50 in assay [1] came to 5 nM. Moreover, the “domain antibody concentration required to achieve 50% inhibition of Etk kinase activity (polyEY substrate, ELISA-based in vitro kinase assay)” value in assay [2] was roughly 20 nM.

B5: L15 soluble single domain antibody (antibody, V domains shown)
VL: DIQMTQSPSSLSASVGDRVTITCRASQNIKTKLNWYQQKPGKAPKLLIYRVSTLQSGVPSRFSGSGSGTDFTLTISSLQPEDFATYYCQQTKKRPFTFGQGTKVEIER
notes: as for B4
As for B5, the EC50 in assay [1] is roughly 20 nM.

B6: K15 intrabody (L15 expressed from pcDNA3.1-L15 in NSR cells) (antibody, V domains shown)
VL: DIQMTQSPSSLSASVGDRVTITCRASQNIKTKLNWYQQKPGKAPKLLIYRVSTLQSGVPSRFSGSGSGTDFTLTISSLQPEDFATYYCQQTKKRPFTFGQGTKVEIER
notes: band of 12 kDa; not shown: c-Myc tag (detected with anti-c-Myc antibody)
In the case of B6, the binding result in assay [4] was “no binding”.

B7: K7 intrabody (L7 expressed from pcDNA3.1-L7 in NSR cells) (antibody, V domains shown, not shown: small tags and cut ends)
VL: DIQMTQSPSSLSASVGDRVTITCRASQRIFTRLEWYQQKPGKAPMLLIYNVSHLQSGVPSRFSGSGSGTDFTLTISSLQPEDFATYYCQQTEIIPITFGQGTKVEIKQ
As to B7, in assay [3], the “in vitro autophosphorylation of immunoprecipitated Etk, percent of the wild-type enzyme (from NSR cells) activity retained” value was roughly 37% and the “in vitro kinase assay of Etk/intrabody immunocomplexes on polyEY, percent of activity of Etk derived from NSR cells” value is roughly 25%.

B8: L11 soluble single domain antibody (antibody, V domains shown)
VL: DIQMTQSPSSLSASVGDRVTITCRASQWIFTELAWYQQKPGKAPKLLIYNASYLQSGVPSRFSGSGSGTDFTLTISSLQPEDFATYYCQQTFTPPITFGQGTKVEIKR
notes: Tie to L11 rests on list order and numbering; not shown: c-Myc tag (detected with anti-Myc-HRP)
Consider B8, for which, in assay [1], the EC50 was 8 nM. Also, in assay [2], the “domain antibody concentration required to achieve 50% inhibition of Etk kinase activity (polyEY substrate, ELISA-based in vitro kinase assay)” value was roughly 40 nM.

B9: L12 soluble single domain antibody (antibody, V domains shown)
VL: DIQMTQSPSSLSASVGDRVTITCRASQWIFDRLHWYQQKPGKAPTLLIYNSSTLQSGVPSRFSGSGSGTDFTLTISSLQPEDFATYYCQQTKSRPSTFGQGTKVEIKR
notes: as for B4
As to B9, the EC50 in assay [1] is roughly 20 nM. The “domain antibody concentration required to achieve 50% inhibition of Etk kinase activity (polyEY substrate, ELISA-based in vitro kinase assay)” value in assay [2] was roughly 20 nM.

B10: L7 soluble single domain antibody (antibody, V domains shown)
VL: DIQMTQSPSSLSASVGDRVTITCRASQRIFTRLEWYQQKPGKAPMLLIYNVSHLQSGVPSRFSGSGSGTDFTLTISSLQPEDFATYYCQQTEIIPITFGQGTKVEIKQ
notes: as for B4
Molecule B10 returned a concentration giving a half-maximal response (EC50) in assay [1] of roughly 20 nM. For the same molecule, the “domain antibody concentration required to achieve 50% inhibition of Etk kinase activity (polyEY substrate, ELISA-based in vitro kinase assay)” value in assay [2] was roughly 20 nM.

B11: K11 intrabody (L11 expressed from pcDNA3.1-L11 in NSR cells) (antibody, V domains shown, not shown: small tags and cut ends)
VL: DIQMTQSPSSLSASVGDRVTITCRASQWIFTELAWYQQKPGKAPKLLIYNASYLQSGVPSRFSGSGSGTDFTLTISSLQPEDFATYYCQQTFTPPITFGQGTKVEIKR
On to B11, for which, in assay [3], the “in vitro autophosphorylation of immunoprecipitated Etk, percent of the wild-type enzyme (from NSR cells) activity retained” value was roughly 30% and the “in vitro kinase assay of Etk/intrabody immunocomplexes on polyEY, percent of activity of Etk derived from NSR cells” value is roughly 25%.
